From paper PMC5397143

Biological target: RctB, wild-type full-length (residues 1–658) (Vibrio cholerae)
Assay: native MS

Substance: RctB, wild-type full-length (residues 1–658) (natural protein)
- stoichiometry N: 2
